According to patent US20220098319A1 (SHANGHAI PHARMAEXPLORER, published 2022):

T1: human CD73 (full length, on transfected CHOK1 cells) (human, UniProt P21589 27-549)
T1 construct: whole, on cells; also called CHOK1-hCD73; hCD73
T1 sequence (looked up): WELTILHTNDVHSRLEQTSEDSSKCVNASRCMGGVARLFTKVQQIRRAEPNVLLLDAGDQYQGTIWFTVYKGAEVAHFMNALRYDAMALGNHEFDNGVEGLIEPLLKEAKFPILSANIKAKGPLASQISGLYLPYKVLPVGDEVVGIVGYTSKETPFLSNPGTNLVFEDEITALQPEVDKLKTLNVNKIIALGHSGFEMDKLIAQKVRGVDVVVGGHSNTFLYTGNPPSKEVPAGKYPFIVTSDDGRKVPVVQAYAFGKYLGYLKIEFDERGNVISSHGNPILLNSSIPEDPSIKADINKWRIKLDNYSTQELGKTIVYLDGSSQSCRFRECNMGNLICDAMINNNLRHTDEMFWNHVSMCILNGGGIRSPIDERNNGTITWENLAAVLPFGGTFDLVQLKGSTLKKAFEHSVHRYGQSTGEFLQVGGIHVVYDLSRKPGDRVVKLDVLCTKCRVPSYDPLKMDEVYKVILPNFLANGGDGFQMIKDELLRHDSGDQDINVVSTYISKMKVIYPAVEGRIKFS

T2: murine CD73 (on transfected CHOK1 cells) (mouse, UniProt Q61503 29-551)
T2 construct: whole, on cells; also called CHOK1-mCD73; mCD73
T2 sequence (looked up): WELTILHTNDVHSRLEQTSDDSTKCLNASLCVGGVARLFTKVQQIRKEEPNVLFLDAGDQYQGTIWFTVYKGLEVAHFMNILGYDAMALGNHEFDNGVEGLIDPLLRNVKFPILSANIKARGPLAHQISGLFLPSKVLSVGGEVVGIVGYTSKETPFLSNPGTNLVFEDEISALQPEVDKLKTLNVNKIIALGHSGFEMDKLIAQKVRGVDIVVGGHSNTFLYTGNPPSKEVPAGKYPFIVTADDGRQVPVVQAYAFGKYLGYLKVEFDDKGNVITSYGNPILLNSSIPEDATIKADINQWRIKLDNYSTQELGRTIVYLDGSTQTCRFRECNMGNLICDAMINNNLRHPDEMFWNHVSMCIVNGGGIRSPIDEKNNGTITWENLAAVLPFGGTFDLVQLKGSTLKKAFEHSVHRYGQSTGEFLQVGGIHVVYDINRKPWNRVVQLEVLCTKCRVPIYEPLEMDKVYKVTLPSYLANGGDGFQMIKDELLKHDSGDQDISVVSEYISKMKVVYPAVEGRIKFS

T3: cynomolgus monkey CD73 (on transfected CHOK1 cells) (cynomolgus monkey, UniProt A0A2K5V5U7 27-549)
T3 construct: whole, on cells; also called CHOK1-cCD73; CHOK1-CCD73
T3 sequence: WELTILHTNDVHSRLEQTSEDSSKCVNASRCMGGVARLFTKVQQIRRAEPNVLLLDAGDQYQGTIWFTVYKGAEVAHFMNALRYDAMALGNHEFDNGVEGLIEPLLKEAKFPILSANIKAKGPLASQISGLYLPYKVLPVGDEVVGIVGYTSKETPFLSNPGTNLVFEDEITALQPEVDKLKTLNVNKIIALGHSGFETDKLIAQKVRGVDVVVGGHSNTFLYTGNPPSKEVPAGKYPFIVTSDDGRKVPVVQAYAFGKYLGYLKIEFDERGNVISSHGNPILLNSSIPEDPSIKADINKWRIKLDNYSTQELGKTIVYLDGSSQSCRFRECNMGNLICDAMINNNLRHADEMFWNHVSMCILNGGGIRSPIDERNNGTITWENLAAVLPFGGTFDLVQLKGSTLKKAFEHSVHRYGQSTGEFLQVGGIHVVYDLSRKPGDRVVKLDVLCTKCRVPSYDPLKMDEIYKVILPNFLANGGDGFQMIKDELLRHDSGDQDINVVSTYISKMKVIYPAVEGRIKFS


Columns and labels:
[1] = target: T1, human CD73 (full length, on transfected …); assay: FACS on CHOK1-hCD73 cells
Procedure: The titration binding curve was produced by the following method:
The CHOK1 stable cell line transfected with human CD73 was expanded to a 75-90% confluence in a T-75 cell culture flask. The medium was aspirated, washed 1-2 times with PBS, and then treated with trypsin (Tryple express: Life technology) and cells were collected. The cells were washed with PBS buffer for 1-2 times. After counted, the cells were diluted with PBS to 1-2×10⁶ cells per ml, added with 1% fetal bovine serum (FBS) blocking solution, incubated on ice for 20-30 minutes, and then washed twice with HBSS by centrifugation. The collected cells were suspended with FACS buffer (PBS+2% FBS) to 2×10⁶ cells/ml, added to a 96-well FACS reaction plate at 100 microliters per well, and centrifuged at 300 g for 5 minutes to discard the supernatant. Anti-CD73 antibody was prepared with blocking solution to an initial concentration of 10 ug/ml and serially diluted at 8 points. 100 microliter per well of that antibody sample to be tested were added and incubated at 4° C. for 1-2 hours. […] The plate was washed 2-3 times with FACS buffer by centrifugation, added with 100 μl fixative solution (4% Paraformaldehyde) per well to suspend the cells. 5-10 minutes later, it was washed 1-2 times with FACS buffer by centrifugation. The cells were suspended with 100 microliters of FACS buffer, FACS (FACSCalibur, BD) was used for detection and the results were analyzed, as shown in FIG. 1 and Table 4.

[2] = target: T1, human CD73 (full length, on transfected …); assay: cell-based or functional assay
[3] = target: T2, murine CD73 (on transfected CHOK1 cells); assay: FACS on CHOK1-mCD73 cells
[4] = target: T3, cynomolgus monkey CD73 (on transfected …); assay: FACS on CHOK1-cCD73 cells

Binder	EC50 [1] [nM]	MAX MFI [1] [MFI]	Enzyme activity blocking assay, IC50 [2] [nM]	Enzyme activity blocking assay, MAX % inhibition [2] [%]	EC50 [4] [nM]	MAX MFI [4] [MFI]	binding result [3]
mAb065 (clone 125A4E10), murine anti-CD73 antibody (antibody, V domains shown, Purified from hybridoma supernatant) VH: EVQLQQSGPELVKPGASVKISCKASGYTFTDYYMNWVKQSHGKSLEWIGNINPNNGDTNYNQKFKGKATLTVDKSSSTASMELRSLTSEDSAVYYCANSGYYYFDYWGQGTTLTVSS VL: DIVMTQSPSSLTVTAGEKVTMSCKSSQSLLNSGNQKNYLTWYQQKPGQPPKVLIYWASTRESGVPDRFTGSGSGTDFTLTISSVQAEDLAVYYCQNDYSYPPTFGGGTNLEIK	1.1	4650	0.3	56.4	2.5	3250	no binding (tested: 10 ug/ml initial concentration)
mAb038 (clone 69C9E12), murine anti-CD73 antibody (antibody, V domains shown, Purified from hybridoma supernatant) VH: QVQLQQPGTELVNPGASVKLSCKASGYTFTSYWMHWVKQRPGQGLEWIGNINPSNGGTHYNEKFNNKATLTVDKSSSTAYMQLSSLTSEDSAVFYCARGDYAYDWYFTVWGTGTTVTVSS VL: DIVLTQSPASLAVSLGQRAIISCKASQSVSFAGTGLMHWYQQKPGQQPKLLIYRVSNLEAGIPTRFSGSGSRTDFTLNIHPVEEDDAATYYCQQNREFPWTFGGGTKLEIK	0.4	5230	1	53.3	0.3	7400	no binding (tested: 10 ug/ml initial concentration)
mAb041 (clone 71E10B3), murine anti-CD73 antibody (antibody, V domains shown, Purified from hybridoma supernatant) VH: QVQLQQPGTELVKPGASVKLSCKASGYTFTSYWMHWVKQRPGQGLEWIGNINPSNGGTNYNQKFKSKATLTVDKSSNTASMQLSSLTSEDSAVYYCARGDYGYDWYLDVWGTGTTVTVSS VL: DIVLTQSPASLAVSLGQRAIISCKASQSVSFAGPSLMHWYQQKPGQQPKLLIYRTSNLEAGVPTRFSGSGSGTDFTLNIHPVEEDDAATYYCQQNREFPWTFGGGTKLEIK	2.9	8160	4	35.7	1.9	9570	no binding (tested: 10 ug/ml initial concentration)
mAb034 (clone 60G1C8), murine anti-CD73 antibody (antibody, V domains shown, Purified from hybridoma supernatant) VH: DVQLQESGPGLVKPSQSLSLTCSVTGYSITSRYYWNWIRQFPGNKLEWMGYMTYDGTNNYNPSLTNRISITRDTSKNQFFLKLNSVTAEDTATYFCARGGWDPFDYWGQGTTLTVSS VL: DIQMTQSPAALSASVGETVTITCRASDNIYSYLAWYQQKQGKCPQLLVKNAKTLAEGVPSRFSGSGSGTQFSLRINSLQPDDFGTYYCQHYYGTPLTFGAGTKLELK	> 10	5820	0.1	73.7	0.2	3210	no binding (tested: 10 ug/ml initial concentration)
mAb036 (clone 66H6C12), murine anti-CD73 antibody (antibody, V domains shown, Purified from hybridoma supernatant) VH: QVQLQQSGAEVVKPGASVKISCKASGYVFSSYWINWVKQRPGKGLEWIGKIFPGNGDTDYNGNFKGKATLTADKSSSTAYMQLSSLTSEDSAVYFCAGFADWGQGTLVTVSA VL: DIQMTQSPSSLSASLGERVSLTCRASQDIGERLIWLQQEPDGTFKRLIYATSSLDSGVPKRFSGSSSGSDYSLTISRLESEDFVDYYCLQYASSPYTFGGGTKLEIK	0.3	5290	0.2	72.3	0.9	7490	no binding (tested: 10 ug/ml initial concentration)

Second part, led by results:

EC50 [1] [nM]	MAX MFI [1] [MFI]	Enzyme activity blocking assay, IC50 [2] [nM]	Enzyme activity blocking assay, MAX % inhibition [2] [%]	EC50 [4] [nM]	MAX MFI [4] [MFI]	Binder	binding result [3]
1.8	7540	0.1	63	3.4	9960	mAb020 (clone 24D6B4), murine anti-CD73 antibody (antibody, V domains shown, Purified from hybridoma supernatant) VH: EVQLQQSGPELVKPGASVKIPCKASGYTFTDYNMDWVKQRHGKSLEWIGDINPNNGGTVYNQKFKGKATLTVDKSSNTAYMELRSLTSEDTAVYYCARISGTGYWYFDVWGTGTTVTVSS VL: DIQMTQSPASLSVSVGETVTITCRASENIYSNLAWYQQKQGKSPQLLVYGATNLADGVPSRFSGSDSGTQYSLKINSLQSEDFGSYYCQHFWGTPWTFGGGTKLEIK	no binding (tested: 10 ug/ml initial concentration)
0.9	6440	0.1	74.6	0.4	6310	mAb030 (clone 42A5A7), murine anti-CD73 antibody (antibody, V domains shown, Purified from hybridoma supernatant; also called antibody 030) VH: DIQLQESGPGLVKPSQSLSLTCSVTGYSITSRYYWNWIRQFPGNKLEWMGYITYDDNNNYNPSLKNRISITRDTSKNQFFLKLNSVTPEDTATYYCARGGWDPFLYWGQGTLVTVSA VL: DIQMTQSPASLSASVGETVTITCRASDNIYSYLAWYQQKQGKSLQLLVDSAKNLGEGVPSRFSGSGSGTQFYLKINSLQPEDFGVYYCQHYYGTPFTFGGGTKLELK	no binding (tested: 10 ug/ml initial concentration)
1.6	7540	0.5	53.5	3.4	12300	mAb044 (clone 80H7D6), murine anti-CD73 antibody (antibody, V domains shown, Purified from hybridoma supernatant) VH: EVKLVESGGGLVQPGGSLRLSCAASGFTFTDYYMSWVRQPPGKALEWLGFIRNKADGSTTEYSASVKGRFTISRDNSQSILYLQMNALRPEDSATYYCTRSPIYFDNWYFDVWGTGTTVTVSS VL: DIVMSQSPSSLAVSVGEKVTMTCKSSQSLLYSNNQKNYLAWYQQKPGQSPKLLIYWASTRESGVPDRFTGSGSGTDFTLTLSSVKAEDLAVYYCQQYYSYPFTFGSGTKLEIK	no binding (tested: 10 ug/ml initial concentration)
> 10	13900	0.1	47.9	3.9	8770	mAb042 (clone 77B9A3), murine anti-CD73 antibody (antibody, V domains shown, Purified from hybridoma supernatant) VH: QVQLQQSGAGLVKPGASVKLSCKASGYTFTNYWMHWVKQRPGQGLEWIGMIHPNSGSTNNNEKFKNKATLTVDKSSNTAYMQLSSLTSEDSAVYYCARFFFGGYPHYYALDYWGQGTSVTVSS VL: DIVMTQSQKFMSTTVGDRVSITCKASQNVGTAVAWYQQKPGQSPKLLIYSASDRYTGVPDRLTGSGSGTDFTLTISNVQSEDLADYFCQQYSSFPLFTFGSGTKLVIQ	no binding (tested: 10 ug/ml initial concentration)
